From paper PMC13399220 come the findings set out here.

Broadly, the Kd is the equilibrium constant for the complex coming apart. In general, stoichiometry N refers to a count of units in the complex or per binding partner.

The target in experiment [1] is C-terminal domain of HIV-1 integrase (HIV-1) (UniProt P12497). As to the kind of experiment: BLI; IN CTD construct (5 uM, acetate buffer pH 5) amine-coupled (EDC/NHS) to carboxyl biosensors, Imp7 in solution at 1-40 000 nM; steady-state analysis; 25 °C; GatorPrime. On the technique in general: In BLI a coated tip is dipped into the sample, and binding shifts an interference pattern.

Experiment [2] concerns the target IN CTD mutant (RRKAK to RAAAK) (HIV-1) (UniProt P12497). Described as above.

Turning to “Xenopus laevis importin 7 (natural protein)”, in experiment [1], the Kd was 0.0179 µM and the stoichiometry N was 1. In experiment [2], this substance came in with a dissociation constant Kd of 0.299 µM.
